Assay results published in US20180030100A1.

How the values were obtained:
[1] = target: Plexin A4 receptor expressed on transfected COS-7 cells; assay: AP-conjugated ligand binding curves on COS-7 cells expressing Plexin A4, estimated affinity (FIG. 4E)
[2] = target: Plexin A4 receptor expressed on transfected COS-7 cells; assay: AP-conjugated ligand on COS-7 cells expressing Plexin A4, cell-bound AP activity with p-nitrophenyl phosphate, Scatchard plot (FIG. 4C)
[3] = target: Plexin A4 receptor expressed on transfected COS-7 cells; assay: cell-binding assay: AP-conjugated ligand on COS-7 cells expressing Plexin A4, p-nitrophenyl phosphate, absorbance at 405 nm [cont. 1). B]
[4] = target: PlexinA4 of human umbilical vein endothelial cells (human) (UniProt Q9HCM2); assay: cell-based or functional assay
[5] = target: Nrp1 expressed on transfected COS cells; assay: AP-conjugated ligand on COS cells expressing Nrp1, cell-bound AP activity with p-nitrophenyl phosphate, binding curve (FIG. 4D)

Sequence of UniProt Q9HCM2 (Q9HCM2 24-1894): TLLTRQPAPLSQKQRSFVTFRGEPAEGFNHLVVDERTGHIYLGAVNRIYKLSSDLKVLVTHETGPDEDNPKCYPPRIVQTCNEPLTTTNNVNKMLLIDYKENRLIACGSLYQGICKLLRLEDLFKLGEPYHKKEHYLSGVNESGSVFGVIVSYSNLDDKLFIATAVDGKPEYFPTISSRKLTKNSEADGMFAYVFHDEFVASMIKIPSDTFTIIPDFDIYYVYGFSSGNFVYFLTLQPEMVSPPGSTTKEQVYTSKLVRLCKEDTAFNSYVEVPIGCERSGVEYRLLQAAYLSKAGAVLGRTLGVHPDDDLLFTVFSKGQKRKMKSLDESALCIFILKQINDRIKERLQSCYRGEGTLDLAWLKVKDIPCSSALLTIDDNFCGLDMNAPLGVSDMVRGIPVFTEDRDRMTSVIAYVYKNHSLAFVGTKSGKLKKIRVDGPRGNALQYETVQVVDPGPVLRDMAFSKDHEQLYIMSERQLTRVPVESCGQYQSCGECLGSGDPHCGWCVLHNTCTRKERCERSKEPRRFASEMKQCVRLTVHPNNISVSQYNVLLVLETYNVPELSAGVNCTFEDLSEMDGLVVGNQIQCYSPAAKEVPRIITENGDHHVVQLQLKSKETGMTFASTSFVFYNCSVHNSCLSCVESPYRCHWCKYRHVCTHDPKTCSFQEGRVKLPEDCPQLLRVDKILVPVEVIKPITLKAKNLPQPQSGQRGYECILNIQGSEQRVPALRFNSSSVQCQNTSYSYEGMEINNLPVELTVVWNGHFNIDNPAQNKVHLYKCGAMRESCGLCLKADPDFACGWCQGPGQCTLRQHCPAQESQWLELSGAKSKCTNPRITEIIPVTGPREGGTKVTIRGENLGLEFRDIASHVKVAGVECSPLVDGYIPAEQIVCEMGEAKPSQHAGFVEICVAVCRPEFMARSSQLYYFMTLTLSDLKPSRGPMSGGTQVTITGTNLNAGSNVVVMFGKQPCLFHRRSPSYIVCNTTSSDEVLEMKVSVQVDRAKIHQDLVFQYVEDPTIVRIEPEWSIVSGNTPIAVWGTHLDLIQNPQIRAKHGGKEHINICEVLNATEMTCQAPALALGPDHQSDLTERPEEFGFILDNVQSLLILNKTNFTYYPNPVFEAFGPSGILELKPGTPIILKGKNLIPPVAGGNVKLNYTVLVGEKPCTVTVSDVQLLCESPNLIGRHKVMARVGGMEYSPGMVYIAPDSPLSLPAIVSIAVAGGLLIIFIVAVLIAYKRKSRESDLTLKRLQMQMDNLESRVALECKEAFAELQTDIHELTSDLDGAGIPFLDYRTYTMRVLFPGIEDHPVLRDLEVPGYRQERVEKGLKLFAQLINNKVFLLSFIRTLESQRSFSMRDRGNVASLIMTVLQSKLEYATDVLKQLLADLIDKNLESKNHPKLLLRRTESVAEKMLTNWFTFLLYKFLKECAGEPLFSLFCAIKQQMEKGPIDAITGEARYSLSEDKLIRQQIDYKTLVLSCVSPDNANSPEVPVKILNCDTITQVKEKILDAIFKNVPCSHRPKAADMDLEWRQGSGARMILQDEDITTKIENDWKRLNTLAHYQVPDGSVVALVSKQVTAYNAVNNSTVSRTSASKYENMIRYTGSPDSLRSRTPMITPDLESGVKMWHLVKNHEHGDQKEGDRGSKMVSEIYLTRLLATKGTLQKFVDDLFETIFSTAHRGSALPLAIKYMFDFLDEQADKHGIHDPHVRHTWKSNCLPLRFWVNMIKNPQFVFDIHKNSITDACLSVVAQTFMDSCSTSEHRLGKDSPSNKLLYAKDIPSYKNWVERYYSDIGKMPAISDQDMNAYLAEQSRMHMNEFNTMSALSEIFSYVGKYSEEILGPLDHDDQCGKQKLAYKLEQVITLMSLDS

alkaline phosphatase (AP)-conjugated mutant Sema3A ΔIg-b (from UniProt P05187 23-511) (ligand)
Kd [1]: 200 nM

alkaline phosphatase (AP)-conjugated mutant Sema3A A106K ΔIg-b (from UniProt P05187 23-511) (ligand)
Kd [1]: 0.7 nM
Kd [2]: 0.7 nM
EC50 (read off the curve) [3]: 0.5 nM

B1: mouse Fc-tagged Sema3A A106K ΔIg-b (Fc fusion)
chain: NYANGKNNVPRLKLSYKEMLESNNVITFNGLANSSSYHTFLLDEERSRLYVGAKDHIFSFNLVNIKDFQKIVWPVSYTRRDECKWKGKDILKECANFIKVLEAYNQTHLYACGTGAFHPICTYIEVGHHPEDNIFKLQDSHFENGRGKSPYDPKLLTASLLIDGELYSGTAADFMGRDFAIFRTLGHHHPIRTEQHDSRWLNDPRFISAHLIPESDNPEDDKVYFFFRENAIDGEHSGKATHARIGQICKNDFGGHRSLVNKWTTFLKARLICSVPGPNGIDTHFDELQDVFLMNSKDPKNPIVYGVFTTSSNIFKGSAVCMYSMSDVRRVFLGPYAHRDGPNYQWVPYQGRVPYPRPGTCPSKTFGGFDSTKDLPDDVITFARSHPAMYNPVFPINNRPIMIKTDVNYQFTQIVVDRVDAEDGQYDVMFIGTDVGTVLKVVSVPKETWHDLEEVLLEEMTVFREPTTISAMELSTKQQQLYIGSTAGVAQLPLHRCDIYGKACAECCLARDPYCAWDGSSCSRYFPTGCKPCICTVPEVSSVFIFPPKPKDVLTITLTPKVTCVVVDISKDDPEVQFSWFVDDVEVHTAQTQPREEQFNSTFRSVSELPIMHQDWLNGKEFKCRVNSAAFPAPIEKTISKTKGRPKAPQVYTIPPPKEQMAKDKVSLTCMITDFFPEDITVEWQWNGQPAENYKNTQPIMDTDGSYFVYSKLNVQKSNWEAGNTFTCSVLHEGLHNHHTEKSLSHSPGK
Relative migration of ECs towards type I collagen at 3 h:45 m, 0.2 nM (xCELLigence) [4]: 60 % of control
Relative migration of ECs towards type I collagen at 3 h:45 m, 0.9 nM (xCELLigence) [4]: 64 % of control
Relative migration of ECs towards type I collagen at 3 h:45 m, 3.5 nM (xCELLigence) [4]: 55 % of control
activation of ERK 1/2 phosphorylation in ECs (Western blot, 15 minutes) [4]: 3.9 fold

B2: alkaline phosphatase (AP)-conjugated Sema3A WT (ligand, not shown: large carriers)
chain: NYANGKNNVPRLKLSYKEMLESNNVITFNGLANSSSYHTFLLDEERSRLYVGAKDHIFSFNLVNIKDFQKIVWPVSYTRRDECKWAGKDILKECANFIKVLEAYNQTHLYACGTGAFHPICTYIEVGHHPEDNIFKLQDSHFENGRGKSPYDPKLLTASLLIDGELYSGTAADFMGRDFAIFRTLGHHHPIRTEQHDSRWLNDPRFISAHLIPESDNPEDDKVYFFFRENAIDGEHSGKATHARIGQICKNDFGGHRSLVNKWTTFLKARLICSVPGPNGIDTHFDELQDVFLMNSKDPKNPIVYGVFTTSSNIFKGSAVCMYSMSDVRRVFLGPYAHRDGPNYQWVPYQGRVPYPRPGTCPSKTFGGFDSTKDLPDDVITFARSHPAMYNPVFPINNRPIMIKTDVNYQFTQIVVDRVDAEDGQYDVMFIGTDVGTVLKVVSVPKETWHDLEEVLLEEMTVFREPTTISAMELSTKQQQLYIGSTAGVAQLPLHRCDIYGKACAECCLARDPYCAWDGSSCSRYFPTAKRRTRRQDIRNGDPLTHCSDLQHHDNHHGPSLEERIIYGVENSSTFLECSPKSQRALVYWQFQRRNEDRKEEIRMGDHIIRTEQGLLLRSLQKKDSGNYLCHAVEHGFMQTLLKVTLEVIDTEHLEELLHKDDDGDGSKIKEMSSSMTPSQKVWYRDFMQLINHPNLNTMDEFCEQVWKRDRKQRRQRPGHSQGSSNKWKHMQESKKGRNRRTHEFERAPRSV
Kd [1]: 7 nM
Kd [5]: 1.1 nM
